{"source": "patent US20160151452A1", "key": {"EphB2-Fc [1]": {"molecular_target": "EphB2-Fc", "sequence (P54763 19-543)": "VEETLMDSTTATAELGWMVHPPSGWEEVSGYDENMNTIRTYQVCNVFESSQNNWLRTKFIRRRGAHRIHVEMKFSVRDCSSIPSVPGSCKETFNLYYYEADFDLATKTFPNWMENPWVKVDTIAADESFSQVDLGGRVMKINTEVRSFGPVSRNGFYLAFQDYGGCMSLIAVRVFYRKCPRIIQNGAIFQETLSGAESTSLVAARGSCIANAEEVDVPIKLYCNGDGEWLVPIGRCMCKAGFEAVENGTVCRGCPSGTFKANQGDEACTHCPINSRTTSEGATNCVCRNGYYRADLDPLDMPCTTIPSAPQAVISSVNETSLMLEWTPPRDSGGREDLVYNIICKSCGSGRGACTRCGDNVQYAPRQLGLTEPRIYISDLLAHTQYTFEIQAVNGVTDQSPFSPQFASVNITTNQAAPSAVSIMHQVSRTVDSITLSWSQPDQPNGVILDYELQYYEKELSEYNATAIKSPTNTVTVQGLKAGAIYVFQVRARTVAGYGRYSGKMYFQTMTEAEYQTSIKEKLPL", "assay": "SPR, 100 nM analyte over immobilised EphB2-Fc"}, "[2]": {"molecular_target": "EphB2 transiently expressed in DU145 cells", "assay": "cell-based or functional assay"}, "EphB2-Fc [3]": {"molecular_target": "EphB2-Fc", "assay": "SPR competition on immobilised EphB2-Fc; competitor ephrinB2-Fc 246 nM"}, "EphB2-Fc [4]": {"molecular_target": "EphB2-Fc", "assay": "SPR competition on immobilised EphB2-Fc; competitor ephrinB2-Fc 246 nM preincubated with 0-1020 nM GST-Azu 88-113"}, "EphA6-Fc": {"molecular_target": "EphA6-Fc", "sequence (Q9UF33 whole entry)": "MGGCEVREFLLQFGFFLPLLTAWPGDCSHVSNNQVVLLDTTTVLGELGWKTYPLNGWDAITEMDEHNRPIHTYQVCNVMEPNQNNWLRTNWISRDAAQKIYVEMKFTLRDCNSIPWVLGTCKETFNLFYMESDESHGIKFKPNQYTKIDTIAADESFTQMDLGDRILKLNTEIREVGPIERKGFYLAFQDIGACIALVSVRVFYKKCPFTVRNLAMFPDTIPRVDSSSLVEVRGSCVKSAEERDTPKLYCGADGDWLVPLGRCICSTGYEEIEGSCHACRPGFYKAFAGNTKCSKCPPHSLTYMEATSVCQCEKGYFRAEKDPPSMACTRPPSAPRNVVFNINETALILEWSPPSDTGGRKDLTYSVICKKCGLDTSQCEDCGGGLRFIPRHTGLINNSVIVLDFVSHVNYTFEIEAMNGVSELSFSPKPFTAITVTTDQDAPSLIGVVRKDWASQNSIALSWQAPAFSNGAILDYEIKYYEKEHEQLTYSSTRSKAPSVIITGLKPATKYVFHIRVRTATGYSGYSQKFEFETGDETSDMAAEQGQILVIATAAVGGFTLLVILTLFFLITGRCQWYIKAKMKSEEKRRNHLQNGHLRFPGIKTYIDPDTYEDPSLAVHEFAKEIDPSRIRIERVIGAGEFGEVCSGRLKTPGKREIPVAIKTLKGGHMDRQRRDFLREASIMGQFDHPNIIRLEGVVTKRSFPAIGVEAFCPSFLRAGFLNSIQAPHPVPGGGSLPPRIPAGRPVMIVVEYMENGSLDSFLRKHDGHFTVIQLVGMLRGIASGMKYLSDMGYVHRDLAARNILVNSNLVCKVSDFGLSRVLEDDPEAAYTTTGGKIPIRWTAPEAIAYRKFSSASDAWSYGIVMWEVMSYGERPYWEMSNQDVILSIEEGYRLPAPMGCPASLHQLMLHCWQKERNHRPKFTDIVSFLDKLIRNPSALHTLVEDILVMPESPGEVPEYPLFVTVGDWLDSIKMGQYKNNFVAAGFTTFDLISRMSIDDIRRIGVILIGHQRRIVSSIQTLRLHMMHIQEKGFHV", "assay": "SPR, azurin immobilised on CM5 chip, 100 nM Eph-Fc injected"}, "EphB2-Fc [5]": {"molecular_target": "EphB2-Fc", "assay": "SPR, azurin immobilised on CM5 chip, 100 nM Eph-Fc injected"}, "EphB2-Fc [6]": {"molecular_target": "EphB2-Fc", "assay": "SPR titration (0.05-100 nM) on immobilised EphB2-Fc, Langmuir 1:1 fit"}, "EphB2-Fc [7]": {"molecular_target": "EphB2-Fc", "assay": "SPR competition on immobilised EphB2-Fc; competitor ephrinB2-Fc 246 nM preincubated with 0-1020 nM azurin"}, "EphB2-Fc [8]": {"molecular_target": "EphB2-Fc", "assay": "SPR titration on immobilised EphB2-Fc, Langmuir 1:1 fit"}}}
{"substance": "GST-Azu 36-89 (from UniProt P08515 1-218)", "values": [{"measurement": "Req in RU", "setting": "EphB2-Fc [1]", "result": 57, "unit": "RU"}]}
{"substance": "GST-Azu 88-113 (from UniProt P08515 1-218)", "values": [{"measurement": "decrease in phosphotyrosine level on cotreatment with ephrinB2 (lane 11 against lane 8)", "setting": "[2]", "result": 21, "unit": "%"}, {"measurement": "decrease in phosphotyrosine level on cotreatment with ephrinB2 (lane 12 against lane 9)", "setting": "[2]", "result": 42, "unit": "%"}, {"measurement": "decrease in phosphotyrosine level on cotreatment with ephrinB2 (lane 13 against lane 10)", "setting": "[2]", "result": 45, "unit": "%"}, {"measurement": "level at which the inhibition levels off", "setting": "EphB2-Fc [3]", "result": "40 to 50", "unit": "%"}, {"measurement": "reduction of total protein binding to the surface", "setting": "EphB2-Fc [4]", "result": "< 60", "unit": "%"}]}
{"substance": "azurin from Pseudomonas aeruginosa (from UniProt P00282 21-148)", "values": [{"measurement": "lower level of tyrosine phosphorylation with azurin plus ephrinB2 than with ephrinB2 alone", "setting": "[2]", "result": "30 to 40", "unit": "%"}, {"measurement": "Req in RU", "setting": "EphB2-Fc [1]", "result": 427, "unit": "RU"}, {"measurement": "Req (saturating resonance)", "setting": "EphA6-Fc", "result": 1200, "unit": "RU"}, {"measurement": "Req (saturating resonance)", "setting": "EphB2-Fc [5]", "result": 1250, "unit": "RU"}, {"measurement": "Kd", "setting": "EphB2-Fc [6]", "result": 0.006, "unit": "µM"}, {"measurement": "level at which the inhibition levels off", "setting": "EphB2-Fc [3]", "result": "40 to 50", "unit": "%"}, {"measurement": "reduction of total protein binding to the surface", "setting": "EphB2-Fc [7]", "result": "< 60", "unit": "%"}]}
{"substance": "ephrinB2-Fc (Fc fusion)", "values": [{"measurement": "Req in RU", "setting": "EphB2-Fc [1]", "result": 159, "unit": "RU"}, {"measurement": "Kd", "setting": "EphB2-Fc [8]", "result": 0.03, "unit": "µM"}, {"measurement": "Kd", "setting": "EphB2-Fc [6]", "result": 0.03, "unit": "µM"}]}
{"substance": "glutathione S-transferase (GST) (from UniProt P08515 1-218) (enzyme)", "values": [{"measurement": "Req in RU", "setting": "EphB2-Fc [1]", "result": 14, "unit": "RU"}, {"measurement": "Kd", "setting": "EphB2-Fc [8]", "result": "> 0.16", "unit": "µM"}]}
